# Assay results from IntAct's records for PubMed 31515488.
# B1: Ligand of Numb protein X 2 (Homo sapiens), Q8N448 (parent)
# chain: MGTTSDEMVSVEQTSSSSLNPLCFECGQQHWTRENHLYNYQNEVDDDLVCHICLQPLLQPLDTPCGHTFCYKCLRNFLQEKDFCPLDRKRLHFKLCKKSSILVHKLLDKLLVLCPFSSVCKDVMQRCDLEAHLKNRCPGASHRRVALERRKTSRTQAEIENENGPTLLDPAGTLSPEADCLGTGAVPVERHLTSASLSTWSEEPGLDNPAFEESAGADTTQQPLSLPEGEITTIEIHRSNPYIQLGISIVGGNETPLINIVIQEVYRDGVIARDGRLLAGDQILQVNNYNISNVSHNYARAVLSQPCNTLHLTVLRERRFGNRAHNHSDSNSPREEIFQVALHKRDSGEQLGIKLVRRTDEPGVFILDLLEGGLAAQDGRLSSNDRVLAINGHDLKYGTPELAAQIIQASGERVNLTIARPGKPQPGNTIREAGNHSSSSQHHTPPPYYSRPSSHKDLTQCVTCQEKHITVKKEPHESLGMTVAGGRGSKSGELPIFVTSVPPHGCLARDGRIKRGDVLLNINGIDLTNLSHSEAVAMLKASAASPAVALKALEVQIVEEATQNAEEQPSTFSENEYDASWSPSWVMWLGLPSTLHSCHDIVLRRSYLGSWGFSIVGGYEENHTNQPFFIKTIVLGTPAYYDGRLKCGDMIVAVNGLSTVGMSHSALVPMLKEQRNKVTLTVICWPGSLV
# B2: Tyrosine-protein phosphatase non-receptor type 9 (Homo sapiens), P43378 (parent)
# chain: MEPATAPRPDMAPELTPEEEQATKQFLEEINKWTVQYNVSPLSWNVAVKFLMARKFDVLRAIELFHSYRETRRKEGIVKLKPHEEPLRSEILSGKFTILNVRDPTGASIALFTARLHHPHKSVQHVVLQALFYLLDRAVDSFETQRNGLVFIYDMCGSNYANFELDLGKKVLNLLKGAFPARLKKVLIVGAPIWFRVPYSIISLLLKDKVRERIQILKTSEVTQHLPRECLPENLGGYVKIDLATWNFQFLPQVNGHPDPFDEIILFSLPPALDWDSVHVPGPHAMTIQELVDYVNARQKQGIYEEYEDIRRENPVGTFHCSMSPGNLEKNRYGDVPCLDQTRVKLTKRSGHTQTDYINASFMDGYKQKNAYIGTQGPLENTYRDFWLMVWEQKVLVIVMTTRFEEGGRRKCGQYWPLEKDSRIRFGFLTVTNLGVENMNHYKKTTLEIHNTEERQKRQVTHFQFLSWPDYGVPSSAASLIDFLRVVRNQQSLAVSNMGARSKGQCPEPPIVVHCSAGIGRTGTFCSLDICLAQLEELGTLNVFQTVSRMRTQRAFSIQTPEQYYFCYKAILEFAEKEGMVSSGQNLLAVESQ
# B3: Max-like protein X (Homo sapiens), Q9UH92 (parent)
# chain: MTEPGASPEDPWVKASPVGAHAGEGRAGRARARRGAGRRGASLLSPKSPTLSVPRGCREDSSHPACAKVEYAYSDNSLDPGLFVESTRKGSVVSRANSIGSTSASSVPNTDDEDSDYHQEAYKESYKDRRRRAHTQAEQKRRDAIKRGYDDLQTIVPTCQQQDFSIGSQKLSKAIVLQKTIDYIQFLHKEKKKQEEEVSTLRKDVTALKIMKVNYEQIVKAHQDNPHEGEDQVSDQVKFNVFQGIMDSLFQSFNASISVASFQELSACVFSWIEEHCKPQTLREIVIGVLHQLKNQLY
# B4: Pre-mRNA-splicing factor SPF27 (Homo sapiens), O75934 (parent)
# chain: MAGTGLVAGEVVVDALPYFDQGYEAPGVREAAAALVEEETRRYRPTKNYLSYLTAPDYSAFETDIMRNEFERLAARQPIELLSMKRYELPAPSSGQKNDITAWQECVNNSMAQLEHQAVRIENLELMSQHGCNAWKVYNENLVHMIEHAQKELQKLRKHIQDLNWQRKNMQLTAGSKLREMESNWVSLVSKNYEIERTIVQLENEIYQIKQQHGEANKENIRQDF
# B5: Ribosome-recycling factor, mitochondrial (Homo sapiens), Q96E11 (parent)
# chain: MALGLKCFRMVHPTFRNYLAASIRPVSEVTLKTVHERQHGHRQYMAYSAVPVRHFATKKAKAKGKGQSQTRVNINAALVEDIINLEEVNEEMKSVIEALKDNFNKTLNIRTSPGSLDKIAVVTADGKLALNQISQISMKSPQLILVNMASFPECTAAAIKAIRESGMNLNPEVEGTLIRVPIPQVTREHREMLVKLAKQNTNKAKDSLRKVRTNSMNKLKKSKDTVSEDTIRLIEKQISQMADDTVAELDRHLAVKTKELLG
# partner: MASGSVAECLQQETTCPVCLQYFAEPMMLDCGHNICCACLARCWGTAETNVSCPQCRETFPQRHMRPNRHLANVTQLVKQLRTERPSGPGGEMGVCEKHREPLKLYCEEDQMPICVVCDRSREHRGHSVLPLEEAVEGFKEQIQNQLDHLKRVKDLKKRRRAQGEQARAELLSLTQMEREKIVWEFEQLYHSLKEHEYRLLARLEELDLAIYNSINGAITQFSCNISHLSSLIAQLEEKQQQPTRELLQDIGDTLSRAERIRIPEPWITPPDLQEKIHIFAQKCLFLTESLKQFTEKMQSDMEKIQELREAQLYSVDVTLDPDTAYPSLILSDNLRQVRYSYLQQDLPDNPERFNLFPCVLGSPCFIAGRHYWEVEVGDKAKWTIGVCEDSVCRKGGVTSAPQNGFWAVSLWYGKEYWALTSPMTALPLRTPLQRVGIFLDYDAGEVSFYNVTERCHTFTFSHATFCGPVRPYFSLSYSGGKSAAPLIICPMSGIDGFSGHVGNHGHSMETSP
# B6: Membrane protein FAM174A (Homo sapiens), Q8TBP5 (parent)
# chain: MKASQCCCCLSHLLASVLLLLLLPELSGPLAVLLQAAEAAPGLGPPDPRPRTLPPLPPGPTPAQQPGRGLAEAAGPRGSEGGNGSNPVAGLETDDHGGKAGEGSVGGGLAVSPNPGDKPMTQRALTVLMVVSGAVLVYFVVRTVRMRRRNRKTRRYGVLDTNIENMELTPLEQDDEDDDNTLFDANHPRR
# partner: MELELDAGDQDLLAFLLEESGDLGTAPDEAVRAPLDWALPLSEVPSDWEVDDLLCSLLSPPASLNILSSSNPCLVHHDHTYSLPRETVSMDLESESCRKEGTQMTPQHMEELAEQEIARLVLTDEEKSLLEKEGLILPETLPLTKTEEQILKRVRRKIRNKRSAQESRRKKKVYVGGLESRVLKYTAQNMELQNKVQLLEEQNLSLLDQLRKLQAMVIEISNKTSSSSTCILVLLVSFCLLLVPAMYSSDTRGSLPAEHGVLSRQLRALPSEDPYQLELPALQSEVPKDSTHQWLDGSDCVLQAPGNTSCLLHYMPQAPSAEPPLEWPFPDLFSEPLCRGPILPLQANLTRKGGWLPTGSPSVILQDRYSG
# B7: Tuftelin-interacting protein 11 (Homo sapiens), Q9UBB9 (parent)
# chain: MSLSHLYRDGEGRIDDDDDERENFEITDWDLQNEFNPNRQRHWQTKEEATYGVWAERDSDDERPSFGGKRARDYSAPVNFISAGLKKGAAEEAELEDSDDEEKPVKQDDFPKDFGPRKLKTGGNFKPSQKGFAGGTKSFMDFGSWERHTKGIGQKLLQKMGYVPGRGLGKNAQGIINPIEAKQRKGKGAVGAYGSERTTQSMQDFPVVDSEEEAEEEFQKELSQWRKDPSGSKKKPKYSYKTVEELKAKGRISKKLTAPQKELSQVKVIDMTGREQKVYYSYSQISHKHNVPDDGLPLQSQQLPQSGKEAKAPGFALPELEHNLQLLIDLTEQEIIQNDRQLQYERDMVVNLFHELEKMTEVLDHEERVISNLSKVLEMVEECERRMQPDCSNPLTLDECARIFETLQDKYYEEYRMSDRVDLAVAIVYPLMKEYFKEWDPLKDCTYGTEIISKWKSLLENDQLLSHGGQDLSADAFHRLIWEVWMPFVRNIVTQWQPRNCDPMVDFLDSWVHIIPVWILDNILDQLIFPKLQKEVENWNPLTDTVPIHSWIHPWLPLMQARLEPLYSPIRSKLSSALQKWHPSDSSAKLILQPWKDVFTPGSWEAFMVKNIVPKLGMCLGELVINPHQQHMDAFYWVIDWEGMISVSSLVGLLEKHFFPKWLQVLCSWLSNSPNYEEITKWYLGWKSMFSDQVLAHPSVKDKFNEALDIMNRAVSSNVGAYMQPGARENIAYLTHTERRKDFQYEAMQERREAENMAQRGIGVAASSVPMNFKDLIETKAEEHNIVFMPVIGKRHEGKQLYTFGRIVIYIDRGVVFVQGEKTWVPTSLQSLIDMAK
# partner: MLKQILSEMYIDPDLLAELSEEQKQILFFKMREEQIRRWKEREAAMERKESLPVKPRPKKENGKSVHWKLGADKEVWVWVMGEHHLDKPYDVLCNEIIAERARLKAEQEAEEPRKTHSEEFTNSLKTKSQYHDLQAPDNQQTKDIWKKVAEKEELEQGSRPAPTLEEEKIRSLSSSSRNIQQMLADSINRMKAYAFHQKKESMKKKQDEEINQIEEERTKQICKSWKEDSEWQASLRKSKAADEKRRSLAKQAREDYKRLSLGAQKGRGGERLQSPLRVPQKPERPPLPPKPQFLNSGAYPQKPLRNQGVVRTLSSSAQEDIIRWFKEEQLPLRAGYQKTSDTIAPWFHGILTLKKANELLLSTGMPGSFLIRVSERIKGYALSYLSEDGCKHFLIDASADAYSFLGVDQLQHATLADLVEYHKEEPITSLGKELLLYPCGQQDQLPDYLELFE
# Variants of: B1
# Conditions: with mk09_human MAPK9, P45984
row,effect of a mutation on the interaction,Variant
1,with no effect,Y266C

# Variants of: B1
# Conditions: with optn_human OPTN
row,effect of a mutation on the interaction,Variant
1,disrupting interaction strength,Y266C

# Variants of: B2
# Conditions: with mal2_human MAL2, Q969L2
row,effect of a mutation on the interaction,Variant
1,disrupting interaction strength,R72Q

# Variants of: B2
# Conditions: with rtn3_human RTN3, O95197
row,effect of a mutation on the interaction,Variant
1,with no effect,R72Q

# Variants of: B2
# Conditions: with atrap_human AGTRAP
row,effect of a mutation on the interaction,Variant
1,with no effect,R72Q

# Variants of: B3
# Conditions: with gbrl2_human GABARAPL2, P60520
row,effect of a mutation on the interaction,Variant
1,with no effect,Q223R

# Variants of: B4
# Conditions: with itf2_human TCF4, P15884
row,effect of a mutation on the interaction,Variant
1,with no effect,N139S

# Variants of: B4
# Conditions: with hgs_human HGS
row,effect of a mutation on the interaction,Variant
1,with no effect,N139S

# Variants of: B4
# Conditions: with ikzf3_human IKZF3, Q9UKT9
row,effect of a mutation on the interaction,Variant
1,with no effect,N139S

# Variants of: B5
# Conditions: with tri27_human TRIM27, P14373
row,effect of a mutation on the interaction,Variant
1,with no effect,M216V

# Variants of: B6
# Conditions: with creb3_human CREB3, O43889
row,effect of a mutation on the interaction,Variant
1,with no effect,D95G

# Variants of: B7
# Conditions: with sh24a_human SH2D4A
row,effect of a mutation on the interaction,Variant
1,with no effect,R8Q
